Assay results reported in US20170022281A1 (AbbVie / Abbott, published 2017).
Where a chain is given by its changes, count along the chain named.

T1: human PRLR (Biacore antigen) (human, UniProt P16471 25-234, limits assumed)
T1 construct: The construct injected over captured antibody is not described (a soluble form is likely); also called huPRLR
T1 sequence: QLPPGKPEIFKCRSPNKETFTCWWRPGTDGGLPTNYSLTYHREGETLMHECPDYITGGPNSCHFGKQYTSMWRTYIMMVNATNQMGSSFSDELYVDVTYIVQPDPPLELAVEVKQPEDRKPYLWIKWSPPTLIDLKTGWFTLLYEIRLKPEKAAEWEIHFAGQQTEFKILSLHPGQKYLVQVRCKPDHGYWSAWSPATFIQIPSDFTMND

T2: cyno PRLR ECD-his6 protein (cyno)
T2 chain: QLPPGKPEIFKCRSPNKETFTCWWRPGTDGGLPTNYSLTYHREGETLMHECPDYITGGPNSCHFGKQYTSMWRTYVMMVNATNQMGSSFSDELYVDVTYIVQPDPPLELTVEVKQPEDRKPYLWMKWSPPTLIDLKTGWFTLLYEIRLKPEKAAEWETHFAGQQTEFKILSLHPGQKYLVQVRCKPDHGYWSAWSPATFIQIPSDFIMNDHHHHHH

T3: human PRLR ECD-Fc fusion protein (human, UniProt P16471 25-233)
T3 construct: not shown: Fc region (captured by goat anti-human Fc)
T3 sequence: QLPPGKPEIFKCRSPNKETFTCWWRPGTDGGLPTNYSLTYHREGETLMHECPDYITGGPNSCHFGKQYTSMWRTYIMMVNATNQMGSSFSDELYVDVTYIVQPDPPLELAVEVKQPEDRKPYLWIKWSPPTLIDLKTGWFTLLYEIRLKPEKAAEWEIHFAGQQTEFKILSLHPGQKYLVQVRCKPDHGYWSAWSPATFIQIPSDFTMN

T4: murine PRLR (Biacore antigen) (murine, UniProt Q08501 20-229, limits assumed)
T4 construct: also called muPRLR
T4 sequence (looked up): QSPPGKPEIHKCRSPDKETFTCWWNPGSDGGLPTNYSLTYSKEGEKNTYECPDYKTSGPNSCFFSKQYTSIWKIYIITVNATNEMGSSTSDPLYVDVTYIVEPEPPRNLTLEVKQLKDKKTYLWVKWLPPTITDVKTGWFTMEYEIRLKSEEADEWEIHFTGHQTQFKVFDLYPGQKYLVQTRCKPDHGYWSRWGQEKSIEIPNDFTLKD

T5: cyno PRLR (Biacore antigen) (cyno, UniProt A0A2K5WXK1 25-234)
T5 construct: also called cyPRLR
T5 sequence: T2 chain

B1: chAb6 (antibody, human IgG1, kappa, V domains shown)
VH: QVQLQQPGAELVMPGSSVKLSCKASGYTFTTYWMHWVKQRPGQGLEWIGEIDPSDSYSNYNQKFKDKATLTVDKSSSTAYMQLSSLTSEDSAVYYCARNGGLGPAWFSYWGQGTLVTVSA
VL: DIVMTQSQKFMSTTVGDRVSITCKASQYVGTAVAWYQQKPGQSPKLLIYSASNRYTGVPDRFTDSGSGTDFTLTISNLQSEDLADYFCQQYSSYPWTFGGGTKLEIKT
notes: chimeric, murine variable and human G1/kappa constant regions
B2: Ab39 (antibody, human IgG1, kappa, V domains shown)
VH: EVQLVQSGAEVKKPGSSVKVSCKASGYTFTSYWIHWVRQAPGQGLEWIGEIDPSDSYTNYNQKFKGRATLTVDKSSSTAYMELSSLRSEDTAVYYCARSFFTNWFAYWGQGTLVTVSS
VL: DVVMTQTPLSLSVTPGQPASISCRSSQSLVHSNGNTYLHWYLQKPGQSPQLLIYKVSNRFSGVPDRFSGSGSGTDFTLKISRVEAEDVGVYFCSQSTHVPFTFGGGTKVEIKR
notes: humanized from Ab7; G1; also called Ab4 HC.1a and Ab4 LC.1a
B3: Ab30 (antibody, human IgG1, kappa, V domains shown)
VH: B2 VH with Y32F, I34M, E50V, S56T, K74E, S99G, F100D, F101Y, T102S, A106T
VL: B2 VL with S28R, F101W
notes: humanized from Ab5; G1; also called Ab2 HC.1a and Ab2 LC.1a
B4: Ab40 (antibody, human IgG1, kappa)
heavy: not shown
light: DVVMTQTPLSLSVTPGQPASISCRSSQSLVHSNGNTYLHWYLQKPGQSPQLLIYKVSNRFSGVPDRFSGSGSGTDFTLKISRVEAEDVGVYYCSQSTHVPFTFGGGTKVEIKRTVAAPSVFIFPPSDEQLKSGTASVVCLLNNFYPREAKVQWKVDNALQSGNSQESVTEQDSKDSTYSLSSTLTLSKADYEKHKVYACEVTHQGLSSPVTKSFNRGEC
notes: humanized from Ab7; G1; also called Ab4 HC.1a and Ab4 LC.1b
B5: Ab19 (antibody, human IgG1, kappa, V domains shown)
VH: EVQLVQSGAEVKKPGSSVKVSCKASGYTFTTYWMHWVRQAPGQGLEWIGEIDPSDSYSNYNQKFKDRATLTVDKSTSTAYMELSSLRSEDTAVYYCARNGGLGPAWFSYWGQGTLVTVSS
VL: DIQMTQSPSSVSASVGDRVTITCKASQYVGTAVAWYQQKPGKSPKLLIYSASNRYTGVPSRFSDSGSGTDFTLTISSLQPEDFATYFCQQYSSYPWTFGGGTKVEIKR
notes: humanized from Ab6; G1; also called Ab1 HC.1a and Ab1 LC.1a
B6: Ab21 (antibody, human IgG1, kappa, V domains shown)
VH: B5 VH
VL: EIVMTQSPATLSVSPGERATLSCKASQYVGTAVAWYQQKPGQSPRLLIYSASNRYTGVPARFSDSGSGTEFTLTISSLQSEDFAVYFCQQYSSYPWTFGGGTKVEIKR
notes: humanized from Ab6; G1; also called Ab1 HC.1a and Ab1 LC.2a
B7: Ab49 (antibody, human IgG1, kappa, V domains shown)
VH: EVQLVQSGAEVKKPGASVKVSCKASGYTFTDYNIHWVRQAPGQGLEWIGYIYPNNDGTGYNQKFKSRATLTVDNSTSTAYMELRSLRSDDTAVYYCARGDGNYVGDMDYWGQGTTVTVSS
VL: DIQMTQSPSSLSASVGDRVTITCRASENIYSYLAWYQQKPGKAPKLLVYNAKTLAEGVPSRFSGSGSGTDFTLTISSLQPEDFATYYCQHHYATPFTFGQGTKLEIKR
notes: humanized from Ab8; G1; also called Ab3 HC.1a and Ab3 LC.1b
B8: Ab48 (antibody, human IgG1, kappa, V domains shown)
VH: B7 VH
VL: B7 VL with A43P
notes: humanized from Ab8; G1; also called Ab3 HC.1a and Ab3 LC.1a
B9: chAb5 (antibody, human IgG1, kappa, V domains shown)
VH: QVQLQQPGAELVRPGTSVKLSCKASGYTFTSFWMHWVKQRPGQGLEWIGVIDPSDTYTNYNQKFKGKATLTVDTSSSTAYMQLSSLTSEDSAVYYCARGDYSNWFTYWGQGTLVTVSA
VL: DVVMTQTPLSLPVSLGDQASISCRSSQRLVHSNGNTYLHWYLQKPGQSPKLLIYKVSNRFSGVPDRFSGSGSGTDFTLKISRVEAEDLGVYFCSQSTHVPWTFGGGTKLEIKT
notes: as for B1

molecular target: T1, human PRLR (Biacore antigen); experiment: SPR simultaneous binding; PRLR held by surface mAb Ab49
Experimental: (§1) Running buffer was HBS-EP+ (10 mM Hepes, pH7.4, 150 mM NaCl, 3 mM EDTA, 0.05% surfactant). Assay was performed at 12° C. using Biacore T200 and CM5 sensor chips with anti-human IgG (Pierce) amine-coupled in all 4 flow cells to ˜2000 RU.
(§2) Separate test mAbs were captured in flowcells 2, 3 & 4 (flowcell 1 was reference, no test mAb). All 4 flowcells were then blocked by injection with isotype control mAb at 50 ug/ml. All 4 flowcells were then injected with antigen or buffer only (buffer only is for double referencing, done for each mAb pair individually). All 4 flowcells were then injected with 2nd test mAb at 10 ug/ml. All 4 flowcells were then regenerated with glycine, pH1.5.

| Binder | solution mAb binding, % of PRLR binding |
| --- | --- |
| B1 | 0% |
| B2 | 2% |
| B3 | 6% |
| B4 | 0% |
| B5 | 1% |
| B6 | 0% |
| B7 | -1% |
| B8 | -2% |
| B9 | 7% |

Molecular target: T2, cyno PRLR ECD-his6 protein
Experiment: ELISA on ECD
In short: (§3)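 PRLR was captured on blocked plates for 1 h, then incubated 1 h with serial antibody dilutions in PBS pH 7.4/0.05% Tween 20 containing 10% Superblock. HRP secondary and TMB gave signal read at 450 nm, and EC50 came from curve fitting.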

| Binder | EC50 |
| --- | --- |
| B1 | 0.072 nM |
| B2 | 0.46 nM |
| B3 | 0.1 nM |
| B4 | 0.862 nM |
| B5 | 0.0575 nM |
| B6 | 0.0537 nM |
| B7 | 0.361 nM |
| B8 | 0.236 nM |
| B9 | 0.103 nM |

molecular target: T3, human PRLR ECD-Fc fusion protein; experiment: ELISA on ECD
In short: as §3

| Binder | EC50 |
| --- | --- |
| B1 | 0.103 nM |
| B2 | 0.18 nM |
| B3 | 0.221 nM |
| B4 | 4.41 nM |
| B5 | 0.0614 nM |
| B6 | 0.0728 nM |
| B7 | 0.0954 nM |
| B8 | 0.0746 nM |
| B9 | 0.098 nM |

molecular target: T1, human PRLR (Biacore antigen); experiment: SPR simultaneous binding; PRLR held by surface mAb Ab30
Experimental: as §1, §2

| Binder | solution mAb binding, % of PRLR binding |
| --- | --- |
| B1 | -1% |
| B2 | 0% |
| B3 | -1% |
| B4 | -1% |
| B5 | -1% |
| B6 | -1% |
| B7 | -1% |
| B8 | -1% |
| B9 | -1% |

molecular target: T4, murine PRLR (Biacore antigen); experiment: SPR Biacore
In short: (§4)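 Association rate, dissociation rate and dissociation constant were measured by surface plasmon resonance on a Biacore instrument. PRLR antigen was tested at 600 nM, 66.67 nM and 7.41 nM, a 3-point, 9-fold dilution series. Constants came from a 1:1 binding model fit (local Rmax, mass-transport term included) in Biacore T200 Evaluation Software.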

| Binder | Kd | koff | kon |
| --- | --- | --- | --- |
| B1 | 608 nM | 0.36 s⁻¹ | 591000 M⁻¹ s⁻¹ |
| B2 | 742 nM | 0.0427 s⁻¹ | 57600 M⁻¹ s⁻¹ |
| B3 | 40 nM | 0.0056 s⁻¹ | 140000 M⁻¹ s⁻¹ |
| B4 | 1190 nM | 0.0534 s⁻¹ | 45000 M⁻¹ s⁻¹ |
| B8 | 453 nM | 0.0983 s⁻¹ | 217000 M⁻¹ s⁻¹ |
| B9 | 13.8 nM | 0.00277 s⁻¹ | 200000 M⁻¹ s⁻¹ |

molecular target: T1, human PRLR (Biacore antigen); experiment: SPR Biacore
In short: as §4

| Binder | Kd | koff | kon |
| --- | --- | --- | --- |
| B1 | 0.469 nM | 0.000536 s⁻¹ | 1.14e+06 M⁻¹ s⁻¹ |
| B2 | 4.25 nM | 0.000715 s⁻¹ | 168000 M⁻¹ s⁻¹ |
| B3 | 1.29 nM | 0.000437 s⁻¹ | 339000 M⁻¹ s⁻¹ |
| B4 | 5.38 nM | 0.000823 s⁻¹ | 153000 M⁻¹ s⁻¹ |
| B5 | 0.409 nM | 0.000403 s⁻¹ | 985000 M⁻¹ s⁻¹ |
| B6 | 0.554 nM | 0.000586 s⁻¹ | 1.06e+06 M⁻¹ s⁻¹ |
| B7 | 0.214 nM | 0.00012 s⁻¹ | 558000 M⁻¹ s⁻¹ |
| B8 | 0.18 nM | 9.84e-05 s⁻¹ | 546000 M⁻¹ s⁻¹ |
| B9 | 0.558 nM | 0.000199 s⁻¹ | 356000 M⁻¹ s⁻¹ |

molecular target: T5, cyno PRLR (Biacore antigen); experiment: SPR Biacore
In short: as §4

| Binder | Kd | koff | kon |
| --- | --- | --- | --- |
| B1 | 0.794 nM | 0.00103 s⁻¹ | 1.3e+06 M⁻¹ s⁻¹ |
| B2 | 4.01 nM | 0.000613 s⁻¹ | 153000 M⁻¹ s⁻¹ |
| B3 | 1.59 nM | 0.000523 s⁻¹ | 330000 M⁻¹ s⁻¹ |
| B4 | 5.38 nM | 0.000719 s⁻¹ | 134000 M⁻¹ s⁻¹ |
| B5 | 0.691 nM | 0.000728 s⁻¹ | 1.05e+06 M⁻¹ s⁻¹ |
| B8 | 9.77 nM | 0.00563 s⁻¹ | 576000 M⁻¹ s⁻¹ |
| B9 | 0.671 nM | 0.000223 s⁻¹ | 333000 M⁻¹ s⁻¹ |

molecular target: T1, human PRLR (Biacore antigen); experiment: SPR simultaneous binding; PRLR held by surface mAb Ab48
Experimental: as §1, §2

| Binder | solution mAb binding, % of PRLR binding |
| --- | --- |
| B1 | 0% |
| B2 | 2% |
| B3 | 6% |
| B4 | 0% |
| B5 | 0% |
| B6 | 1% |
| B7 | 0% |
| B8 | -1% |
| B9 | 8% |
